The test system of series [1] is HeLa Kyoto. As to the kind of experiment: solubility in G1/S (NP-40 vs SDS abundance) (log2 ratio); higher = more soluble. To be noted: cell cycle stage: G1/S.
In series [2] the test system is HeLa Kyoto. As to the kind of experiment: thermal stability score vs G1/S (z-score of summed log2 fold changes over temperatures); higher = more thermally stable than in G1/S.
In series [3] the test system is HeLa Kyoto. Briefly: solubility change mitosis vs G1/S (difference of NP-40 vs SDS log2 ratios) (log2 ratio difference); higher = more soluble in mitosis.
Series [4] relates to HeLa Kyoto. As to the kind of experiment: melting temperature (median over replicates), in situ; higher = more thermally stable.
[5] abbreviates: cell cycle stage: early G1 (4.5 h after nocodazole release).
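Wherever melting temperature (median over replicates), in situ is given: HeLa Kyoto cells synchronized by double thymidine or nocodazole block, proteins quantified by TMT10plex mass spectrometry, three independent biological replicates.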
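Wherever solubility change mitosis vs G1/S (difference of NP-40 vs SDS log2 ratios) is given: synchronized HeLa Kyoto cells (double thymidine block for G1/S, nocodazole release for mitosis), protein amounts in NP-40 versus SDS lysates quantified by mass spectrometry, three biological replicates.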
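Wherever solubility in G1/S (NP-40 vs SDS abundance) is given: HeLa Kyoto cells arrested at G1/S by double thymidine block, proteins quantified by TMT10plex mass spectrometry in mild NP-40 versus SDS extracts, three biological replicates.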
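Wherever thermal stability score vs G1/S (z-score of summed log2 fold changes over temperatures) is given: synchronized HeLa Kyoto cells, proteins quantified by TMT10plex mass spectrometry, three biological replicates, mitosis taken 0.5 h after nocodazole release, G1/S directly after double thymidine block.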

Consider “MRKRTEPVALEHERCAAAGSSSSGSAAAALDADCRLKQNLRLTGPAAAEPRCAADAGMKRALGRRKGVWLRLRKILFCVLGLYIAIPFLIKLCPGIQAKLIFLNFVRVPYFIDLKKPQDQGLNHTCNYYLQPEEDVTIGVWHTVPAVWWKNAQGKDQMWYEDALASSHPIILYLHGNAGTRGGDHRVELYKVLSSLGYHVVTFDYRGWGDSVGTPSERGMTYDALHVFDWIKARSGDNPVYIWGHSLGTGVATNLVRRLCERETPPDALILESPFTNIREEAKSHPFSVIYRYFPGFDWFFLDPITSSGIKFANDENVKHISCPLLILHAEDDPVVPFQLGRKLYSIAAPARSFRDFKVQFVPFHSDLGYRHKYIYKSPELPRILREFLGKSEPEHQH [ABHD12]”, for which, in series [1], the “solubility in G1/S (log2)” value amounted to 0.0996. Besides, the thermal stability score in series [2] (setting [5]) was 0.18; in series [2] (cell cycle stage: mitosis) it was -0.815. For the same sequence, the “solubility change mitosis (log2)” value in series [3] was 0.0278. Moreover, the melting temperature in series [4] (cell cycle stage: G1/S) turned out to be 53 °C; in series [4] (cell cycle stage: mitosis) it was 54.9 °C.

For the sequence “MRLFVSDGVPGCLPVLAAAGRARGRAEVLISTVGPEDCVVPFLTRPKVPVLQLDSGNYLFSTSAICRYFFLLSGWEQDDLTNQWLEWEATELQPALSAALYYLVVQGKKGEDVLGSVRRALTHIDHSLSRQNCPFLAGETESLADIVLWGALYPLLQDPAYLPEELSALHSWFQTLSTQEPCQRAAETVLKQQGVLALRPYLQKQPQPSPAEGRAVTNEPEEEELATLSEEEIAMAVTAWEKGLESLPPLRPQQNPVLPVAGERNVLITSALPYVNNVPHLGNIIGCVLSADVFARYSRLRQWNTLYLCGTDEYGTATETKALEEGLTPQEICDKYHIIHADIYRWFNISFDIFGRTTTPQQTKITQDIFQQLLKRGFVLQDTVEQLRCEHCARFLADRFVEGVCPFCGYEEARGDQCDKCGKLINAVELKKPQCKVCRSCPVVQSSQHLFLDLPKLEKRLEEWLGRTLPGSDWTPNAQFITRSWLRDGLKPRCITRDLKWGTPVPLEGFEDKVFYVWFDATIGYLSITANYTDQWERWWKNPEQVDLYQFMAKDNVPFHSLVFPCSALGAEDNYTLVSHLIATEYLNYEDGKFSKSRGVGVFGDMAQDTGIPADIWRFYLLYIRPEGQDSAFSWTDLLLKNNSELLNNLGNFINRAGMFVSKFFGGYVPEMVLTPDDQRLLAHVTLELQHYHQLLEKVRIRDALRSILTISRHGNQYIQVNEPWKRIKGSEADRQRAGTVTGLAVNIAALLSVMLQPYMPTVSATIQAQLQLPPPACSILLTNFLCTLPAGHQIGTVSPLFQKLENDQIESLRQRFGGGQAKTSPKPAVVETVTTAKPQQIQALMDEVTKQGNIVRELKAQKADKNEVAAEVAKLLDLKKQLAVAEGKPPEAPKGKKKK [MARS]”, the “solubility in G1/S (log2)” value in series [1] amounted to 0.171. The figures for the thermal stability score in series [2] (setting [5]) and in series [2] (cell cycle stage: mitosis) were 1.07 and 4.3, respectively. The “solubility change mitosis (log2)” value in series [3] is -0.109. The melting temperature was 49.1 °C in series [4] (cell cycle stage: G1/S) and 49.4 °C in series [4] (cell cycle stage: mitosis).

With “MRLGPRTAALGLLLLCAAAAGAGKAEELHYPLGERRSDYDREALLGVQEDVDEYVKLGHEEQQKRLQAIIKKIDLDSDGFLTESELSSWIQMSFKHYAMQEAKQQFVEYDKNSDDTVTWDEYNIQMYDRVIDFDENTALDDAEEESFRKLHLKDKKRFEKANQDSGPGLSLEEFIAFEHPEEVDYMTEFVIQEALEEHDKNGDGFVSLEEFLGDYRWDPTANEDPEWILVEKDRFVNDYDKDNDGRLDPQELLPWVVPNNQGIAQEEALHLIDEMDLNGDKKLSEEEILENPDLFLTSEATDYGRQLHDDYFYHDEL [RCN2]”, the “solubility in G1/S (log2)” value in series [1] came out at 0.0519. In addition, the thermal stability score in series [2] (setting [5]) worked out at 4.55; in series [2] (cell cycle stage: mitosis) it was 0.298. In addition, in series [3], the “solubility change mitosis (log2)” value came out at 0.0798. For the same sequence, the melting temperature was 54.1 °C in series [4] (cell cycle stage: G1/S) and 55.7 °C in series [4] (cell cycle stage: mitosis).

Consider “MRLLRRRHMPLRLAMVGCAFVLFLFLLHRDVSSREEATEKPWLKSLVSRKDHVLDLMLEAMNNLRDSMPKLQIRAPEAQQTLFSINQSCLPGFYTPAELKPFWERPPQDPNAPGADGKAFQKSKWTPLETQEKEEGYKKHCFNAFASDRISLQRSLGPDTRPPECVDQKFRRCPPLATTSVIIVFHNEAWSTLLRTVYSVLHTTPAILLKEIILVDDASTEEHLKEKLEQYVKQLQVVRVVRQEERKGLITARLLGASVAQAEVLTFLDAHCECFHGWLEPLLARIAEDKTVVVSPDIVTIDLNTFEFAKPVQRGRVHSRGNFDWSLTFGWETLPPHEKQRRKDETYPIKSPTFAGGLFSISKSYFEHIGTYDNQMEIWGGENVEMSFRVWQCGGQLEIIPCSVVGHVFRTKSPHTFPKGTSVIARNQVRLAEVWMDSYKKIFYRRNLQAAKMAQEKSFGDISERLQLREQLHCHNFSWYLHNVYPEMFVPDLTPTFYGAIKNLGTNQCLDVGENNRGGKPLIMYSCHGLGGNQYFEYTTQRDLRHNIAKQLCLHVSKGALGLGSCHFTGKNSQVPKDEEWELAQDQLIRNSGSGTCLTSQDKKPAMAPCNPSDPHQLWLFV [GALNT6]”, for which, in series [1], the “solubility in G1/S (log2)” value was found to be 0.0486. Also, the thermal stability score in series [2] (setting [5]) was determined as 4; in series [2] (cell cycle stage: mitosis) it was 5.54. Further, in series [3], the “solubility change mitosis (log2)” value was -0.117. Besides, the figures for the melting temperature in series [4] (cell cycle stage: G1/S) and in series [4] (cell cycle stage: mitosis) were 53.6 °C and 53.2 °C, respectively.

On to “MRPEPGGCCCRRTVRANGCVANGEVRNGYVRSSAAAAAAAAAGQIHHVTQNGGLYKRPFNEAFEETPMLVAVLTYVGYGVLTLFGYLRDFLRYWRIEKCHHATEREEQKDFVSLYQDFENFYTRNLYMRIRDNWNRPICSVPGARVDIMERQSHDYNWSFKYTGNIIKGVINMGSYNYLGFARNTGSCQEAAAKVLEEYGAGVCSTRQEIGNLDKHEELEELVARFLGVEAAMAYGMGFATNSMNIPALVGKGCLILSDELNHASLVLGARLSGATIRIFKHNNMQSLEKLLKDAIVYGQPRTRRPWKKILILVEGIYSMEGSIVRLPEVIALKKKYKAYLYLDEAHSIGALGPTGRGVVEYFGLDPEDVDVMMGTFTKSFGASGGYIGGKKELIDYLRTHSHSAVYATSLSPPVVEQIITSMKCIMGQDGTSLGKECVQQLAENTRYFRRRLKEMGFIIYGNEDSPVVPLMLYMPAKIGAFGREMLKRNIGVVVVGFPATPIIESRARFCLSAAHTKEILDTALKEIDEVGDLLQLKYSRHRLVPLLDRPFDETTYEETED [SPTLC2]”, for which the “solubility in G1/S (log2)” value in series [1] was found to be 0.00928. Besides, the results for the thermal stability score in series [2] (setting [5]) and in series [2] (cell cycle stage: mitosis) were 0.665 and -0.386, respectively. In addition, the “solubility change mitosis (log2)” value in series [3] is -0.16. For the same sequence, the melting temperature came to 53 °C in series [4] (cell cycle stage: G1/S) and 52.7 °C in series [4] (cell cycle stage: mitosis).

Source of the values: the supplement of paper PMC5998384.
